Like-named read-outs stand apart in the source and are kept apart here.
Experiments:
[1] = test system: CCR5+ and CD4+ lymphocytes; type: in vivo, human
Procedure: CCR5^+ and CD4^+ lymphocytes were measured by flow cytometry.

[2] = Phase 1b clinical study: safety, anti-PRO 140 antibodies, plasma RANTES
Excerpt: Subjects were ≥18 years of age with plasma HIV-1 RNA ≥5,000 copies/mL, R5-tropic HIV-1 only, CD4^+ cells ≥250/μL with no documented nadir ≤200/μL and no antiretroviral therapy for at least 3 months. Major exclusion criteria included pregnancy, history of AIDS-defining illness, the presence of X4-tropic HIV-1, and acute or symptomatic viral hepatitis within the prior 6 months.
Evaluations of clinical subjects included physical examinations, 12-lead electrocardiograms, vital signs, concomintant medications, and adverse events reporting. Clinical laboratory tests evaluated serum chemistries, hematology and urinalysis.
Samples below the LLOQ were assigned a value of zero. PK metrics were estimated using non-compartmental methods. The area under the serum concentration-time curve from time zero to infinity (AUC) was calculated using the linear trapezoidal rule. The terminal serum half-life was calculated by regression of the terminal portion of the concentration-time curve. […] Sera were tested at a 1:10 dilution initially, and positive samples were serially diluted for titer analysis.
CCR5^+ and CD4^+ lymphocytes were measured by flow cytometry. […] CTC5-PE data were used to determine the absolute number of circulating CCR5^+ lymphocytes pre- and post-treatment. RANTES was measured in platelet-depleted plasma using a validated ELISA.

R5 HIV-1 = assay: Phase 2 trial of subcutaneous PRO 140: HIV-1 RNA; type: in vivo, human
Procedure: More particularly, dosing comprises 162 mg q1wx3, 324 mg q1wx3, 324 mg q2wx2. Subcutaneous PRO 140 offers a long-acting, self-administered therapy for HIV infection.
Subjects were followed for a total of 58 days for safety and antiviral effects. Entry criteria included: HIV-1 RNA >5,000 copies/mL, R5 virus, […], no antiretroviral therapy <12 weeks.

B1: PRO 140: humanized IgG4,κ anti-CCR5 mAb, humanized version of the murine mAb PA14 (antibody, chains of the INN, looked up, V domains shown)
VH: EVQLVESGGGLVKPGGSLRLSCAASGYTFSNYWIGWVRQAPGKGLEWIGDIYPGGNYIRNNEKFKDKTTLSADTSKNTAYLQMNSLKTEDTAVYYCGSSFGSNYVFAWFTYWGQGTLVTVSS
VL: DIVMTQSPLSLPVTPGEPASISCRSSQRLLSSYGHTYLHWYLQKPGQSPQLLIYEVSNRFSGVPDRFSGSGSGTDFTLKISRVEAEDVGVYYCSQSTHVPLTFGQGTKVEIK
[1]; 0.5 mg/kg
  duration of maximal masking or coating of CCR5: 1 week
[1]; 5 mg/kg, Day 8
  average increase in CD4+ lymphocytes: 129 cells/mm^3
  mean change in CD4+ cells over baseline: +129 cells/μL
[1]; 5 mg/kg, Day 15
  mean change in CD4+ cells over baseline: +96 cells/μL
[1]; 5 mg/kg, Day 22
  mean change in CD4+ cells over baseline: +83 cells/μL
[1]; 5 mg/kg, Days 29 and 59
  mean change in CD4+ cells over baseline: < +10 cells/μL
[1]; 0.5 and 2 mg/kg groups
  change in CD4+ cells (in words): No significant change
[1]; 2 and 5 mg/kg (higher dose levels)
  duration of maximal (high-level) coating of CCR5: 2 weeks
[1]; all PRO 140 treatment groups
  duration of significant (p<0.05) coating of CCR5+ lymphocytes: 2-4 weeks
[1]; human, in vivo
  depletion of CCR5+ cells: no depletion of CCR5^+ cells
[2]; human, in vivo
  serious adverse events / dose-limiting toxicity: No drug-related serious adverse events or dose-limiting toxicity was reported
[2]; single IV 0.5, 2 and 5 mg/kg
  effect on QTc intervals / electrocardiogram: no clinically relevant drug-related effect on QTc intervals
R5 HIV-1; SC 162 mg weekly
  mean reduction in viral load at day 22: 0.75 log 10
R5 HIV-1; SC 162 mg, Days 1, 8, 15
  % subjects with ≥1 log10 drop: 55%
  Max viral load reduction (mean): 0.99 log10
  Max viral load reduction: Range: −0.23 to −1.92 log10
  Mean duration in days ≥1 log10 drop: 14 days
  log10 change in HIV-1 RNA: Day 22 Mean: −0.75 log10
  log10 change in HIV-1 RNA: Day 22 Median: −0.77; p = 0.0072 log10
  maximum log10 change in HIV-1 RNA: Mean: −0.99 log10
  maximum log10 change in HIV-1 RNA: Median: −1.06; p = 0.0093 log10
R5 HIV-1; SC 324 mg bi-weekly
  mean reduction in viral load at day 22: 1.20 log 10
R5 HIV-1; SC 324 mg weekly
  mean reduction in viral load at day 22: 1.51 log 10
R5 HIV-1; SC 324 mg, Days 1, 8, 15
  % subjects with ≥1 log10 drop: 73%
  Max viral load reduction (mean): 1.65 log10
  Max viral load reduction: Range: −0.76 to −2.50 log10
  Mean duration in days ≥1 log10 drop: 20 days
  log10 change in HIV-1 RNA: Day 22 Mean: −1.51 log10
  log10 change in HIV-1 RNA: Day 22 Median: −1.50; p < 0.0001 log10
  maximum log10 change in HIV-1 RNA: Mean: −1.65 log10
  maximum log10 change in HIV-1 RNA: Median: −1.74; p < 0.0001 log10
R5 HIV-1; SC 324 mg, Days 1, 15
  % subjects with ≥1 log10 drop: 67%
  Max viral load reduction (mean): 1.37 log10
  Max viral load reduction: Range: −0.35 to −3.53 log10
  Mean duration in days ≥1 log10 drop: 18 days
  log10 change in HIV-1 RNA: Day 22 Mean: −1.20 log10
  log10 change in HIV-1 RNA: Day 22 Median: −1.03; p < 0.0001 log10
  maximum log10 change in HIV-1 RNA: Mean: −1.37 log10
  maximum log10 change in HIV-1 RNA: Median: −1.16; p = 0.0001 log10
R5 HIV-1; SC 324 mg, days 1, 8 and 15
  continuation of suppression following the last dose: 7 days
